Results: PMC9601775 (Protein Science : A Publication of the Protein Society, 2022)

What was measured:
Test in all cases: SPR; Biacore 8K; EGFR extracellular domain immobilised on CM5 chip by amine coupling (~1000 RU); VHHs injected in two-fold serial dilutions at 30 μl/min; 25°C; PBS with 0.005% Tween20
Conditions in all cases: both partners purified
[1] = biological target: T1, extracellular domain of epidermal growth factor receptor (EGFR), residues 1–618 (Homo sapiens (; human EGFR in …, UniProt P00533)
T1 construct: Epidermal growth factor receptor (EGFR), extracellular domain, residues 1-618; also called extracellular domain of EGFR; source: Sf9 expression system (baculovirus), purified from the culture supernatant (Ni-NTA, SEC)

[2] = biological target: T1, extracellular domain of epidermal …; remark: listed apart in the source
[3] = biological target: T1, extracellular domain of epidermal …; remark: listed apart in the source

| Binder | Kd [1] | koff [1] | kon [1] | Kd [2] | Kd [3] | koff [3] | kon [3] |
| --- | --- | --- | --- | --- | --- | --- | --- |
| 7D12‐Vob Y42F (VHH, PDB 7XL1) with the stated change; IMGT numbering; source: E. coli BL21(DE3), periplasmic fraction, purified (Ni-NTA, SEC)) VHH: EVQLVESGGGLVQPGGSLRLSCAASGRTSRSYGMGWFRQAPGKGRELVAGISWRGDSTGYADSVKGRFTISRDNAKNTLYLQMNSLRPEDTAVYYCAFAAGSAWYGTLYEYDYWGQGTLVTVSS | 191 nM | 0.137 s⁻¹ | 713000 M⁻¹ s⁻¹ | – | – | – | – |
| 7D12‐Vob Y42F‐L52F (VHH, PDB 7XL1) with the stated changes; IMGT numbering; source: E. coli BL21(DE3), periplasmic fraction, purified (Ni-NTA, SEC)) VHH: EVQLVESGGGLVQPGGSLRLSCAASGRTSRSYGMGWFRQAPGKGREFVAGISWRGDSTGYADSVKGRFTISRDNAKNTLYLQMNSLRPEDTAVYYCAFAAGSAWYGTLYEYDYWGQGTLVTVSS | 110 nM | 0.0799 s⁻¹ | 729000 M⁻¹ s⁻¹ | – | – | – | – |
| 7D12‐Vob E1Q‐Y42F‐L52F‐F106A (VHH, PDB 7XL1) with the stated changes; IMGT numbering; also called quadruple mutant; source: E. coli BL21(DE3), periplasmic fraction, purified (Ni-NTA, SEC)) VHH: QVQLVESGGGLVQPGGSLRLSCAASGRTSRSYGMGWFRQAPGKGREFVAGISWRGDSTGYADSVKGRFTISRDNAKNTLYLQMNSLRPEDTAVYYCAAAAGSAWYGTLYEYDYWGQGTLVTVSS | – | – | – | 4.7 nM | – | – | – |
| 7D12‐Vob Y42F‐L52F‐F106A (VHH, PDB 7XL1) with the stated changes; IMGT numbering; also called triple mutant; source: E. coli BL21(DE3), periplasmic fraction, purified (Ni-NTA, SEC)) VHH: EVQLVESGGGLVQPGGSLRLSCAASGRTSRSYGMGWFRQAPGKGREFVAGISWRGDSTGYADSVKGRFTISRDNAKNTLYLQMNSLRPEDTAVYYCAAAAGSAWYGTLYEYDYWGQGTLVTVSS | 38 nM | 0.0693 s⁻¹ | 1.82e+06 M⁻¹ s⁻¹ | – | – | – | – |
| 7D12‐Vob L52F (VHH, PDB 7XL1) with the stated change; IMGT numbering; source: E. coli BL21(DE3), periplasmic fraction, purified (Ni-NTA, SEC)) VHH: EVQLVESGGGLVQPGGSLRLSCAASGRTSRSYGMGWYRQAPGKGREFVAGISWRGDSTGYADSVKGRFTISRDNAKNTLYLQMNSLRPEDTAVYYCAFAAGSAWYGTLYEYDYWGQGTLVTVSS | 358 nM | 0.123 s⁻¹ | 344000 M⁻¹ s⁻¹ | – | – | – | – |
| 7D12‐Vob F106A (VHH, PDB 7XL1) with the stated change; IMGT numbering; source: E. coli BL21(DE3), periplasmic fraction, purified (Ni-NTA, SEC)) VHH: EVQLVESGGGLVQPGGSLRLSCAASGRTSRSYGMGWYRQAPGKGRELVAGISWRGDSTGYADSVKGRFTISRDNAKNTLYLQMNSLRPEDTAVYYCAAAAGSAWYGTLYEYDYWGQGTLVTVSS | 482 nM | 0.152 s⁻¹ | 316000 M⁻¹ s⁻¹ | – | – | – | – |
| 7D12‐Vob (VHH, CDRs of 7D12 grafted onto the framework regions of Vobarilizumab; PDB 7XL1; also called chimeric VHH; source: E. coli BL21(DE3), periplasmic fraction, purified (Ni-NTA, SEC)) VHH: EVQLVESGGGLVQPGGSLRLSCAASGRTSRSYGMGWYRQAPGKGRELVAGISWRGDSTGYADSVKGRFTISRDNAKNTLYLQMNSLRPEDTAVYYCAFAAGSAWYGTLYEYDYWGQGTLVTVSS | – | – | – | – | 1450 nM | 0.247 s⁻¹ | 169000 M⁻¹ s⁻¹ |
